This note sets out measurements from paper PMC3128127.

The target in assay [1] is HIV-1 GagPol, protease-inactive (D25A, PR-), from an expression plasmid (HIV-1). The assay can be described thus: incorporation into virus-like particles (fluorescence microscopy of pelleted, filtered particles).
For assay [2], the target named is HIV-1 (NL4-3) GagPol, wild type, in authentic virions (HIV-1 (NL4-3)). The assay can be described thus: incorporation into virions (quantitative fluorescence-based Western blot, LI-COR). For orientation: In western blotting, separated proteins are transferred to a membrane and probed.

“And” between values parts separate entries of the source, which are not always exact repeats. Identical values can stand only once.

Chain of DsRed-clathrin LC (P09496 whole entry): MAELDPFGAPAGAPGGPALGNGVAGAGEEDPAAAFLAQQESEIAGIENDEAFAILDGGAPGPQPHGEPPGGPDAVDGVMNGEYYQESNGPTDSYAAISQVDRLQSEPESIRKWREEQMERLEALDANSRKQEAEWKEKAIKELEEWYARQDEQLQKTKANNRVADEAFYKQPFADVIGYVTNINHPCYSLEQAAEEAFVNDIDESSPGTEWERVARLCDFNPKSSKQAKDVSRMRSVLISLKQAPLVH

Substance “DsRed-clathrin LC (from UniProt P09496 1-248) (natural protein)” gave a percent of VLPs labelled with DsRed-clathrin LC in assay [1] of 40%.

In the case of “clathrin heavy chain (from UniProt Q00610 1-1675) (natural protein)”, the percent of the total clathrin HC of the culture present in virions in assay [2] was 6% and 8%.
